Results reported in patent publication US20250018037A1 (SEOUL NATIONAL UNIVERSITY R AND DB FOUNDATION, published 2025).

T1: Human CS1-Fc fusion protein (CS1 ectodomain S23~M226 with C-terminal human IgG1 Fc) (human, UniProt Q9NQ25 23-226)
T1 construct: range 23-226; Made in-house in Expi293 cells; also called recombinant CS1-Fc fusion protein; not shown: C-terminal human IgG1 Fc
T1 sequence (looked up): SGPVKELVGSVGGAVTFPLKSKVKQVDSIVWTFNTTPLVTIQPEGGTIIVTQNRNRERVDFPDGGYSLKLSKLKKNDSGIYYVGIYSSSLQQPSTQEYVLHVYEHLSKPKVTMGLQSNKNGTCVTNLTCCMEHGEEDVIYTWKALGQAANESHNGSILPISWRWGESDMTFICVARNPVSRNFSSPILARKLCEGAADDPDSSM

T2: Recombinant mouse CD40-Fc (1215-CD, R&D systems) (mouse, UniProt P27512 24-193, limits assumed)
T2 construct: Bought protein; also called recombinant CD40 protein
T2 sequence (looked up): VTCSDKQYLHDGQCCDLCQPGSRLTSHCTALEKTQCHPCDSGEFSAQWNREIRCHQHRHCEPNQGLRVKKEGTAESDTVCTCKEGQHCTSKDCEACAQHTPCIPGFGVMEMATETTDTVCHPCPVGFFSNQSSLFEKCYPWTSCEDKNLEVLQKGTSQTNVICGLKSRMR

B1: hCS1(#87)-Ck-His (anti-human CS1 scFv-Cκ-(G4S)2-6×His, clone #87) (scFv)
scFv: QAALTQPSSVSANPGETVKITCSGGGSYYGWYQQKSPGSAPVTVIYGNDKRPSNIPSRFSGSKSGSTATLTITGVQVEDEAVYFCGGWDSTDAGTFGAGTTLTVLGQSSRSSGGGGSSGGGGSAVTLDESGGGLQTPGGGLSLVCKASGFTFSSHGMAWVRQAPGKGLEWVAGIDDSGSSTGYGSAVKGRATISRDNGQSTVRLQLNNLRAEDTGIYYCAKAYDTGCGWAGYNVYDCSADQIDAWGHGTEVIVSSTSGQAGQRTVAAPSVFIFPPSDEQLKSGTASVVCLLNNFYPREAKVQWKVDNALQSGNSQESVTEQDSKDSTYSLSSTLTLSKADYEKHKVYACEVTHQGLSSPVTKSFNRGESGGGGSGGGGSHHHHHH
notes: also called #87 clone; His tagged CS1 adaptor
B2: 2B1-Cκ (anti-human CD40 scFv clone 2B1 fused with human Cκ) (scFv)
scFv: QAALTQPSSVSANPGETVKITCSGGDSYAGSYYYGWFQQKAPGSAPVTVIYYNDKRPSDIPSRFSGSTSGSTSTLTITGVQAEDEAVYYCGSIDTSSGTGIFGAGTTLTVLGQSSRSSGGGGSSGGGGSAVTLDESGGGLQTPGGALSLVCKGSGFTFSSYQMFWVRQAPGKGLEYVAEISGSGLSTWYAPAVKGRATISRDNGQSTVRLQLNNLRAEDTGTYYCAKAAGSCGVGTCAGGIVDGIDAWGHGTEVIVSSTSGQAGQRTVAAPSVFIFPPSDEQLKSGTASVVCLLNNFYPREAKVQWKVDNALQSGNSQESVTEQDSKDSTYSLSSTLTLSKADYEKHKVYACEVTHQGLSSPVTKSFNRGES
notes: also called 2B1-Ck; free 2B1
B3: C1C02-Cκ (anti-mouse CD40 scFv clone C1C02 fused with human immunoglobulin kappa light chain constant region) (scFv)
scFv: QAALTQPSSVSANPGETVKITCSGGSSNYGWYQQKSPGSAPATVIYDNTNRPSDIPSRFSGALSGSTATLTITGVQVEDEAVYYCGGYDSGTYAGIFGAGTTLTVLGQSSRSSGGGGSSGGGGSAVTLDESGGGLQTPGGTLSLACKGSGFTFSSVNMQWVRQAPGKGLEWVAGISSDGSYTAYGAAVKGRATISRDNGQSTVRLQLNNLRAEDTAIYYCAKIAGGYYWDAAYSIDMWGHGTEVIVSSTSGQAGQRTVAAPSVFIFPPSDEQLKSGTASVVCLLNNFYPREAKVQWKVDNALQSGNSQESVTEQDSKDSTYSLSSTLTLSKADYEKHKVYACEVTHQGLSSPVTKSFNRGES
notes: also called C1C02 scFv; anti-mouse CD40 antibody (clone C1C02)
B4: 2E1-Cκ (anti-human CD40 scFv clone 2E1 fused with human Cκ) (scFv)
scFv: QAALTQPSSVSANPGETVKITCSGSSSSYYGWYQQKAPGSAPVTLIYANDKRPSDIPSRFSGSKSGSTHTLTITGVQADDEAVYFCGSADSTDSGFGAGTTLTVLGQSSRSSGGGGSSGGGGSAVTLDESGGGLQTPGGALSLVCKASGFSFSSYSMHWVRQAPGKGLEFVAAISSDGSRYTHYGPAVKGRATISRDNGQSTVRLQLNNLRPEDTGTYYCAKTSNTWTWNTGWIDAWGHGTEVIVSSTSGQAGQRTVAAPSVFIFPPSDEQLKSGTASVVCLLNNFYPREAKVQWKVDNALQSGNSQESVTEQDSKDSTYSLSSTLTLSKADYEKHKVYACEVTHQGLSSPVTKSFNRGES
notes: also called 2E1-Ck
B5: hCS1(#57)-Ck-His (anti-human CS1 scFv-Cκ-(G4S)2-6×His, clone #57) (scFv)
scFv: QAALTQPSSVSANLGETVKITCSGSSGNNYGWYQQKSPGSAPVTVIYYNDNRPSDIPSRFSGSKSGSTHTLTITGVQADDEAVYFCGSGDSSSNPGIFGAGTTLTVLGQSSRSSGGGGSSGGGGSAVTLDESGGGLQTPGGALSLVCKASGFTFSSHGMAWVRQAPGKGLEWVAGIDDSGSSTGYGSAVKGRATISRDNGQSTVRLQLNNLRAEDTGIYYCAKAYDTGCGWAGYNVYDCSADQIDAWGHGTEVIVSSTSGQAGQRTVAAPSVFIFPPSDEQLKSGTASVVCLLNNFYPREAKVQWKVDNALQSGNSQESVTEQDSKDSTYSLSSTLTLSKADYEKHKVYACEVTHQGLSSPVTKSFNRGESGGGGSGGGGSHHHHHH
notes: also called #57 clone; His tagged CS1 adaptor

How the values were obtained:
[1] = target: T3, Human CD40 on cells (Raji, Daudi, IM-9) (human, UniProt P25942 21-277); assay: flow cytometry on Raji cells, 1 ug/1x10^5 cells, anti-human Ck-APC (axis hCk); negative control
T3 construct: whole, on cells; also called cell surface CD40; hCD40

[2] = target: Mouse CD40 on cells (A20 lymphoma cells, EL4-mCD40 cells, peritoneal macrophages, splenic dendritic cells) (mouse) (UniProt P27512); assay: flow cytometry on A20 cells, anti-human Ck-APC (axis hCk); negative control
[3] = target: T4, BSA (bovine serum albumin) (bovine, UniProt P02769 25-607); assay: serial dilution ELISA on wells with blocking only (the legend calls this the binding to BSA), OD at 405 nm
T4 construct: Control antigen in the phage ELISA
Description: (§1) FIGS. 20A-C The individual specific binders are screened by ELISA and 23 different scFv clones were further characterized by sequencing. FIG. 20A: Reactivity of the selected scFv clones to human CS1 was assayed by measuring absorbance at 405 nm. The individual scFv clones were reactive to human CS1-His (▪) and human CS1-Fc ( ), but not hFc ( ) or BSA (□).Binding activity determination of selected clones specific to human CS1. The three clones selected from the phage ELISA were verified in a serial dilution ELISA after expression and purification as a form of scFv-Cκ-His. The y-axis of the graphs depicts the signal for serial dilutions of the antibodies, and the x-axis depicts the antibody concentration in the wells of the dilution series. The binding to human CS1-Fc is indicated as red, while the binding to BSA is indicated as blue. […] FIG. 20B: Binding activity of anti-human CS1 cFv-Cκ-His on J558/CS1 or J558 cells measured using flow cytometry. […] Binding of scFv adapters were detected by adding APC conjugated anti-human Cκ antibodies or APC conjugated anti-His tag secondary antibodies. FIG. 20C: Binding activity of anti-human CS1 scFv-Cκ-His on MM1.s cells measured using flow cytometry. Binding of the antibodies were detected by adding either an APC conjugated anti-human Cκ antibodies, or an APC conjugated anti-His tag secondary antibodies, respectively. […]

[4] = target: T1, Human CS1-Fc fusion protein (CS1 …); assay: serial dilution ELISA of purified scFv-Cκ-His on coated hCS1-Fc, OD at 405 nm, detection with anti-human Cκ-HRP
Description: as §1

[5] = target: T5, Recombinant human CD40-Fc (1493-CDB, R&D systems) (human, UniProt P25942 21-193); assay: ELISA, human CD40-Fc coated at 2.5 ug/ml, serial dilutions 0.0001 to 1000 nM, anti-human Ck-HRP, absorbance 450 nm
T5 construct: Bought protein; also called human CD40 recombinant proteins
Description: FIG. 13A: Recombinant human CD40-Fc (2.5 μg/ml) was coated in ELISA plate and the serial diluents of 2B1-Ck, 2E1-Ck and irrelevant scFv antibody-Ck were loaded. The bound scFv-Cκs were detected by a secondary anti-human Cκ-HRP followed by chromogenic reaction with TMB substrate. The absorbance was measured at 450 nm. […] FIG. 13B: Raji, a CD40-expressing human B lymphoma cell line, was stained with 2B1-Ck, 2E1-Ck or the irrelevant scFv-Cκ (1 μg/1×10⁵ cells), and then stained with secondary anti-human Ck-APC. The binding intensity of the scFv-Cκs were analyzed by flow cytometry. The numbers are mean fluorescence intensities (MFIs) of the binding.
(§2) White leghorn chickens were immunized four times with recombinant mouse CD40 (50324-M08H, Sino Biological, China) or human CD40 (10774-H08H, Sino Biological) protein. Total RNA from the bursa of Fabricius, spleen, and bone marrow was isolated using TRIzol reagent (Invitrogen, USA), and cDNA was synthesized using a SuperScript III first-strand cDNA synthesis kit with oligo (dT) primers (Invitrogen) according to the manufacturer's instructions. The scFv phage-display libraries were constructed from the cDNAs as described previously⁵¹. […] The binding of the scFv-Cκs was measured with the secondary antibody (anti-human Cκ-HRP; AP502P, Sigma-Aldrich, USA).

[6] = target: T2, Recombinant mouse CD40-Fc (1215-CD, R&D …); assay: ELISA, mouse CD40-Fc coated at 2.5 ug/ml, serial dilutions 0.0001 to 1000 nM, anti-human Ck-HRP, absorbance 450 nm
Description: FIG. 8A: Recombinant mouse CD40-Fc (2.5 μg/ml) was coated in ELISA plate and the serial diluents of C1C02-Cκ or the irrelevant scFv-Cκ were loaded. The bound scFv-Cκs were detected by a secondary anti-human Cκ-HRP followed by a chromogenic reaction with TMB substrate. The absorbance was measured at 450 nm. […] FIG. 8B: A20, a CD40-expressing mouse B lymphoma cell line, was stained with C1C02-Cκ (1 μg/1×10⁵ cells) or the irrelevant scFv-Cκ and then stained with a secondary anti-human Cκ-APC. The binding intensity of the scFv-Cκs was analyzed by flow cytometry. The numbers are the mean fluorescence intensities (MFIs) of the binding.
as §2

T4 sequence (P02769 25-607 limits assumed): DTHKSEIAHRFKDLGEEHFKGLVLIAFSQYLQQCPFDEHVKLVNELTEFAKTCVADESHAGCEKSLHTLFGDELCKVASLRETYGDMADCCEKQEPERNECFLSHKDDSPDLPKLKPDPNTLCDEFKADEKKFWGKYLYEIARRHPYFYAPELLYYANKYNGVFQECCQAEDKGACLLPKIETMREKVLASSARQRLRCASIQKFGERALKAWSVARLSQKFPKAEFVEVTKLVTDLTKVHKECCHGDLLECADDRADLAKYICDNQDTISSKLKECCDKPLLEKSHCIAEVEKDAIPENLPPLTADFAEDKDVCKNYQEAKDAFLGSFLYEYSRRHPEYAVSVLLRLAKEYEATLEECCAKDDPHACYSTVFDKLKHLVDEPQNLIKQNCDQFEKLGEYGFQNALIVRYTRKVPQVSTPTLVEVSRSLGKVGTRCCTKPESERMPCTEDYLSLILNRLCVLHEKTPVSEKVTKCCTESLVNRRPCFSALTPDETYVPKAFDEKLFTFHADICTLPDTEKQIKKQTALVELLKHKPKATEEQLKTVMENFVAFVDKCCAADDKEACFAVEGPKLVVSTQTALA
T5 sequence (P25942 21-193 limits assumed): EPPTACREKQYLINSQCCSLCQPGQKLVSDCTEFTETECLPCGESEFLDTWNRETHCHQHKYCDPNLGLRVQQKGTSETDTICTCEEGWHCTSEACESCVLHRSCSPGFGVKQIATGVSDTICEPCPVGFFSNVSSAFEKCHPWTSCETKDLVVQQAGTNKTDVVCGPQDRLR
T3 sequence (P25942 21-277): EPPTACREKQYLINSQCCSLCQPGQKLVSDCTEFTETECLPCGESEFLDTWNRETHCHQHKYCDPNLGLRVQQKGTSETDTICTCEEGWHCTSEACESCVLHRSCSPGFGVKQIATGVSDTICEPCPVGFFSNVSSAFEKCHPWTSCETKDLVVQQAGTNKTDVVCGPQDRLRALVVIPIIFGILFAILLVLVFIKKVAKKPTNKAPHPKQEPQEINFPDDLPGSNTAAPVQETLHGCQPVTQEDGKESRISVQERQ
Sequence of Mouse CD40 on cells (A20 lymphoma cells, EL4-mCD40 cells, peritoneal macrophages, splenic dendritic cells) (mouse) (P27512 20-289): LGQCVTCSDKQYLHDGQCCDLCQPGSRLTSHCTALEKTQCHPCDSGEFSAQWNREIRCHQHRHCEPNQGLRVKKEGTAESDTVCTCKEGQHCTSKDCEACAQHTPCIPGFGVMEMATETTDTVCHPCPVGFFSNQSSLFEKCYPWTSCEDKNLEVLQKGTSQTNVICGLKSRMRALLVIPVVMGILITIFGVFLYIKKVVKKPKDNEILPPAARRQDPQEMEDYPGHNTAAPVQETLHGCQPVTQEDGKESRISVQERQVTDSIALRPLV

Molecule | binding result [3] | EC50 [4] | EC50 [5] | other results
Irrelevant Ab-Ck (scFv) | – | – | – | MFI [1]: 3.78; MFI [2]: 24.6
B1 | no binding | 2.9 nM | – | –
B2 | – | – | 0.365 nM | –
B3 | – | – | – | EC50 [6]: 1.28 nM
B4 | – | – | 1.06 nM | –
B5 | no binding | 9.3 nM | – | –
